{"source": "patent WO2001085789A2", "about": "(dated 2001)", "key": {"Ryk-Fc fusion protein [1]": {"target": "T1, Ryk-Fc fusion protein (human)", "T1 chain": "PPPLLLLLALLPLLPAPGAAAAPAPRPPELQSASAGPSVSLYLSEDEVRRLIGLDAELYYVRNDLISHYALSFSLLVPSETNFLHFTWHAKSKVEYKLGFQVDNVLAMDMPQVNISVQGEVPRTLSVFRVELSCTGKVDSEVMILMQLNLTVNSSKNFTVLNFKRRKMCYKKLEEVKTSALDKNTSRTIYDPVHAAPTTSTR", "assay": "SPR, BIACORE 2000, 25 C; scFv 1B4 amine coupled to CM5 chip, Ryk-Fc 30 to 242 nM injected; KD = koff/kon"}, "Ryk-Fc fusion protein [2]": {"target": "T1, Ryk-Fc fusion protein", "assay": "SPR, BIACORE 2000, 25 C; scFv 1B4 amine coupled to CM5 chip, Ryk-Fc 30 to 242 nM injected; global fit A + B = AB"}}, "data": [{"binder": "anti-Ryk scFv 1B4 antibody (scFv, V domains shown) VH: EVQLVQSGAEVKKPGSSVKVSCKASGGTFSSYAISWVRQAPGQGLEWMGGIIPIFGTANYAQKFQGRVTITADESTSTAYMELSSLRSEDTAVYYCARSYYDWFDYWGQGTLVTVSS VL: IVLTQPPSVSGAPGQRVTISCSGSSSNIGSNYVSWYQQLPGTAPKLLIYDNNQRPSGVPDRFSGSKSGTSASLAITGLQSEDEADYYCQSWDSIAQIVFGGGTKLTVL", "values": [{"measurement": "Kd", "setting": "Ryk-Fc fusion protein [1]", "result": 13.3, "unit": "nM"}, {"measurement": "koff", "setting": "Ryk-Fc fusion protein [2]", "result": 0.00067, "unit": "s⁻¹"}, {"measurement": "kon", "setting": "Ryk-Fc fusion protein [2]", "result": 50000, "unit": "M⁻¹ s⁻¹"}]}]}
